{"source": "patent US8492147B2", "about": "“Method of inducing the differentiation of embryonic stem cells into nerve by serum-free suspension culture” (Riken, priority 2004, dated 2013)", "key": {"[1]": {"system": "Mouse ES cells (EB5 cells)", "assay": "SFEB culture with retinoic acid, Bf1+ cells and RT-PCR of rostral/caudal markers", "type": "cell-based", "conditions": "RA 0.2 μM after 3-5 days of the culture", "procedure": "Specifically, As ES cells, those cultured for maintenance by conventional culture method without feeder cells supplemented with 1% fetal calf serum, 10% KSR (Knockout Serum Replacement), and LIF were used for SFEB method (see, Neuron, Vol. 28: 31-40 (2000)). Next, after ES cell colonies were subjected to trypsin/EDTA treatment to make single cells, 10 ml of the cells (6×10^4 cells/ml) were seeded on cell non-adhesive culture plastic plate (diameter: 10 cm), and incubated at 37° C., 5% CO2 for five days. As medium, differentiation medium composed of 500 ml of GMEM, 5 ml of 100×NEAA, 5 ml of 100×pyruvate, and 0.5 ml of 1×10^−1 M 2-mercaptoethanol, and 5% KSR (Knockout Serum Replacement). […]\nMouse ES cells (EB5 cells) were subjected to serum-free floating culture by the SFEB method in the same manner as Example 1 for 5 days, after which they were dispersed by trypsin/EDTA treatment, seeded to a cell culture slide coated with poly-D lysine/laminin, and cultured in a differentiation medium (as described above) for 2 days, and then in a GMEM+N2 medium (composition: GMEM+1×N-2 Supplement (manufactured by Gibco, a supply of ×100 concentration was used after dilution), 0.1 mM non-essential amino acid, 1 mM sodium pyruvate, 0.1 mM 2-mercaptoethanol) for 3 days. The finally obtained differentiated cells were analyzed by the fluorescent antibody method using anti-Bf1 antibody. […]"}, "ES cells [2]": {"system": "ES cells", "assay": "SDIA method on PA6 cells with BMP4, Math1 and cerebellar granule cell markers", "type": "cell-based", "text": "Although there have been no reports on differentiation induction of ES cells into cerebellar tissue, the present inventors have already reported that Math1 is induced by treating neurons differentiated by the SDIA method with BMP4 (see Proc. Natl. Acad. Sci. USA, 100, 5828-5833). […] Therefore, the Math1-positive cells induced by the SDIA method were postulated not to be cerebellar granule cells, but to be Math1-positive cells of the pons, medulla oblongata, spinal cord and the like."}, "ES cells [3]": {"system": "ES cells", "assay": "BMP treatment of ES cells cultured by SFEB method", "type": "cell-based", "text": "(§1) It is interesting to elucidate what kinds of signaling regulate this difference by analyzing RNA profile for them."}, "ES cells [4]": {"system": "ES cells", "assay": "BMP treatment of ES cells cultured on collagen-coated dish", "type": "cell-based", "conditions": "BMP treatment (5 nM)", "text": "as §1"}, "EB5 cells": {"system": "EB5 cells", "assay": "SFEB culture, differentiation into retinal precursor cells (Rx, rhodopsin immunostaining)", "type": "cell-based, mouse", "procedure": "EB5 cells were subjected to serum-free floating culture by the SFEB method for 5 days, after which cell clamps as is were seeded to a cell culture slide coated with poly-D lysine/laminin/fibronectin, and cultured while in the KSR-containing differentiation medium for the SFEB method for a total of 8 days. Immunostaining was performed using an internally prepared antibody against Rx, a marker specific for retinal precursor cells; an Rx-positive cell population was identified in about 15-30% of the cell clamps (colonies). By treatment with 5% fetal calf serum or 100 ng/ml activin (manufactured by R&D) or treatment with 3-30 nM Shh during 3 to 5 days after the start of cultivation, the Rx positivity rate of colonies increased to 50% (about 2 times). […] Also, these cells were subjected to adhesion culture for a long time (a total of 14 to 18 days); a plurality of cells positive for the visual cell marker Crx or rhodopsin were identified in 1-5% of the colonies."}, "Sox1/GFP-mES cells": {"system": "Sox1/GFP-mES cells", "assay": "SFEB serum-free floating culture of Sox1/GFP-mES cells, frequency of Sox1-GFP+ cells (FACS)", "type": "cell-based, mouse", "conditions": "for experiment-to-experiment variation of GFP expression value: initial cell density 5×10^4 cell/ml, without addition varied by about 10-15%", "procedure": "Specifically, As ES cells, those cultured for maintenance by conventional culture method without feeder cells supplemented with 1% fetal calf serum, 10% KSR (Knockout Serum Replacement), and LIF were used for SFEB method (see, Neuron, Vol. 28: 31-40 (2000)). Next, after ES cell colonies were subjected to trypsin/EDTA treatment to make single cells, 10 ml of the cells (6×10^4 cells/ml) were seeded on cell non-adhesive culture plastic plate (diameter: 10 cm), and incubated at 37° C., 5% CO2 for five days. As medium, differentiation medium composed of 500 ml of GMEM, 5 ml of 100×NEAA, 5 ml of 100×pyruvate, and 0.5 ml of 1×10^−1 M 2-mercaptoethanol, and 5% KSR (Knockout Serum Replacement).\nNext, For quantitative analysis, mouse ES cells wherein GFP (green fluorescent protein) was knocked in the nerve marker Sox1 gene by homologous recombination (hereinafter abbreviated as Sox1/GFP-mES cells as required; see Nature Biotechnology Vol. 21: 183-186 (2003)) were cultured by the SFEB method. The culture conditions were the same as those for the SFEB method described in 1.1. above except that Sox1/GFP-mES cells were used as the ES cells.\nNext, to further improve the efficiency of differentiation into nervous system cells by the SFEB method, the present inventors attempted to determine whether or not the efficiency of differentiation into nervous system cells was improved by inhibiting Nodal, Wnt, and BMP, which are promoters of differentiation into mesodermal cells.\nNext, we tested effects of Nodal and Wnt by adding Nodal protein (manufactured by R&D) and Wnt3a protein (manufactured by R&D) to SFEB culture."}, "ES cells [5]": {"system": "ES cells", "assay": "SFEB culture then adhesion culture with Wnt3a, dorsal/ventral telencephalon markers", "type": "cell-based, mouse", "procedure": "Mouse ES cells (EB5 cells) were subjected to serum-free floating culture by the SFEB method in the same manner as Example 1 for 5 days, after which they were dispersed by trypsin/EDTA treatment, seeded to a cell culture slide coated with poly-D lysine/laminin, and cultured in a differentiation medium (as described above) for 2 days, and then in a GMEM+N2 medium (composition: GMEM+1×N-2 Supplement (manufactured by Gibco, a supply of ×100 concentration was used after dilution), 0.1 mM non-essential amino acid, 1 mM sodium pyruvate, 0.1 mM 2-mercaptoethanol) for 3 days. The finally obtained differentiated cells were analyzed by the fluorescent antibody method using anti-Bf1 antibody. For comparison, neural differentiation from ES cells was performed by the SDIA method, and the cells obtained were analyzed by the fluorescent antibody method in the same manner.\nES cells were cultured by the SFEB method in the same manner as Examples 4 and 6 for 5 days to induce neural differentiation, subsequently dispersed by trypsin/EDTA treatment, seeded to a cell culture slide coated with poly-D lysine/laminin, and cultured. […] In the case of 50 ng/ml Wnt3a, about 75% of the Bf1-positive cells expressed the dorsal marker Pax6, and about 10 percent of them expressed Emx1, a marker of cerebrocortical precursor cells."}, "[6]": {"conditions": "Nodal protein 5 μg/ml, Wnt3a protein 50 ng/ml, during days 0-5 and days 2-5"}, "[7]": {"conditions": "Wnt3a 5 ng/ml or 50 ng/ml from Day 6, total 10 days"}}, "data": [{"molecule": "CC1=C(/C=C/C(C)=C/C=C/C(C)=C/C(=O)O)C(C)(C)CCC1", "note": "[RA, retinoic acid]", "values": [{"measurement": "Bf1+ cells", "setting": "[1]", "value": "< 1", "unit": "%"}]}, {"molecule": "BMP4: BMP signal promoter, manufactured by R&D", "values": [{"measurement": "Ki67 in the Math1-positive cells", "setting": "ES cells [2]; 0.5-1 nM BMP4", "value": "negative"}, {"measurement": "expression of Pax6, Zic1 in the Math1-positive cells", "setting": "ES cells [2]; 0.5-1 nM BMP4, most of these cells", "value": "did not express"}, {"measurement": "neural differentiation", "setting": "ES cells [3]", "value": "completely suppresses neural differentiation"}, {"measurement": "cell type produced", "setting": "ES cells [3]; not flk1+ cells", "value": "efficiently produces E-cad^+/Oct3/4^− cells"}, {"measurement": "cell type produced", "setting": "ES cells [4]", "value": "induces efficient differentiation into flk1^+ lateral plate mesoderm"}]}, {"molecule": "activin: TGFβ family protein, Nodal signal promoter, manufactured by R&D (protein, UniProt P08476 311-426, looked up, Inhibin beta A chain activin A assumed, TGFβ family protein, Nodal signal promoter, manufactured by R&D) Inhibin beta A chain: GLECDGKVNICCKKQFFVSFKDIGWNDWIIAPSGYHANYCEGECPSHIAGTSGSSLSFHSTVINHYRMRGHSPFANLKSCCVPTKLRPMSMLYYDDGQNIIKKDIQNMIVEECGCS", "values": [{"measurement": "Rx positivity rate of colonies", "setting": "EB5 cells; 5% fetal calf serum or 100 ng/ml activin or 3-30 nM Shh during 3 to 5 days, total 8 days, without: about 15-30%", "value": 50, "unit": "%"}, {"measurement": "increase of Rx positivity rate of colonies", "setting": "EB5 cells; same treatments, versus no treatment", "value": "about 2 times"}]}, {"molecule": "Dkk1: anti-Wnt reagent (Wnt signal inhibitor), manufactured by R&D Company (protein, UniProt O94907 32-266, looked up) Dickkopf-related protein 1: TLNSVLNSNAIKNLPPPLGGAAGHPGSAVSAAPGILYPGGNKYQTIDNYQPYPCAEDEECGTDEYCASPTRGGDAGVQICLACRKRRKRCMRHAMCCPGNYCKNGICVSSDQNHFRGEIEETITESFGNDHSTLDGYSRRTTLSSKMYHTKGQEGSVCLRSSDCASGLCCARHFWSKICKPVLKEGQVCTKHRRKGSHGLEIFQRCYCGEGLSCRIQKDHHQASNSSRLHTCQRH", "values": [{"measurement": "experiment-to-experiment variation of GFP expression value", "setting": "Sox1/GFP-mES cells", "value": "stabilized the value of GFP expression"}]}, {"molecule": "Lefty-A: anti-Nodal reagent (Nodal signal inhibitor), manufactured by R&D Company (protein, UniProt O00292 77-366, looked up) Left-right determination …: RFSQSFREVAGRFLASEASTHLLVFGMEQRLPPNSELVQAVLRLFQEPVPKAALHRHGRLSPRSAQARVTVEWLRVRDDGSNRTSLIDSRLVSVHESGWKAFDVTEAVNFWQQLSRPRQPLLLQVSVQREHLGPLASGAHKLVRFASQGAPAGLGEPQLELHTLDLRDYGAQGDCDPEAPMTEGTRCCRQEMYIDLQGMKWAKNWVLEPPGFLAYECVGTCQQPPEALAFNWPFLGPRQCIASETASLPMIVSIKEGGRTRPQVVSLPNMRVQKCSCASDGALVPRRLQP", "values": [{"measurement": "frequency of Sox1-GFP+ cells", "setting": "Sox1/GFP-mES cells; added on Day 0 of SFEB, 5 μg/ml Lefty-A, 1 μg/ml Dkk1, 1.5 μg/ml BMPRIA-Fc receptobody", "value": "evaluate the frequency of Sox1-GFP^+ cells"}, {"measurement": "experiment-to-experiment variation of GFP expression value", "setting": "Sox1/GFP-mES cells", "value": "stabilized the value of GFP expression"}]}, {"molecule": "Wnt3a: Wnt3a protein (manufactured by R&D), Wnt signal promoter (protein, UniProt P56704 19-352, looked up) Protein Wnt-3a: SYPIWWSLAVGPQYSSLGSQPILCASIPGLVPKQLRFCRNYVEIMPSVAEGIKIGIQECQHQFRGRRWNCTTVHDSLAIFGPVLDKATRESAFVHAIASAGVAFAVTRSCAEGTAAICGCSSRHQGSPGKGWKWGGCSEDIEFGGMVSREFADARENRPDARSAMNRHNNEAGRQAIASHMHLKCKCHGLSGSCEVKTCWWSQPDFRAIGDFLKDKYDSASEMVVEKHRESRGWVETLRPRYTYFKVPTERDLVYYEASPNFCEPNPETGSFGTRDRTCNVSSHGIDGCDLLCCGRGHNARAERRREKCRCVFHWCCYVSCQECTRVYDVHTCK", "values": [{"measurement": "frequency of Sox1-GFP+ cells", "setting": "Sox1/GFP-mES cells; [6]", "value": "significantly suppress"}, {"measurement": "Bf1-positive cells expressing Emx1", "setting": "ES cells [5]; 50 ng/ml Wnt3a", "value": "about 10%"}, {"measurement": "Bf1-positive cells expressing dorsal marker Pax6", "setting": "ES cells [5]; 50 ng/ml Wnt3a", "value": "about 75%"}, {"measurement": "number of cells positive for both NRx2.1 and Bf1 (ventral telencephalon markers)", "setting": "ES cells [5]; [7]", "value": "decreased remarkably"}, {"measurement": "number of cells positive for both Pax6 and Bf1 (dorsal telencephalon markers)", "setting": "ES cells [5]; [7]", "value": "increased"}]}, {"molecule": "Nodal protein: Nodal protein (manufactured by R&D), Nodal signal promoter (protein, UniProt Q96S42 238-347, looked up) Nodal homolog: HHLPDRSQLCRKVKFQVDFNLIGWGSWIIYPKQYNAYRCEGECPNPVGEEFHPTNHAYIQSLLKRYQPHRVPSTCCAPVKTKPLSMLYVDNGRVLLDHHKDMIVEECGCL", "values": [{"measurement": "frequency of Sox1-GFP+ cells", "setting": "Sox1/GFP-mES cells; [6]", "value": "significantly suppress"}]}]}
